What all share (experiment): two-hybrid library CCmax;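 also: natural log of median RNA to DNA barcode read ratio; higher means stronger binding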
One experiment has as its target T1, APC2811-AA.
T1 chain: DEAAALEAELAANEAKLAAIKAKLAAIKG
Particulars: mean of both orientations.

In a further experiment the target is T2, APC2556-AA.
T2 chain: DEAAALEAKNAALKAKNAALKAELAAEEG
The settings on record: mean of both orientations.

Another experiment has as its target T3, APC2543-AA.
T3 chain: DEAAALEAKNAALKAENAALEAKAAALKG
Particulars: mean of both orientations.

In another experiment the target is T4, APC8516-AA.
T4 chain: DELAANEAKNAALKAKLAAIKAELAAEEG
Particulars: mean of both orientations.

For the next experiment, the target named is T5, APC9141-AA.
T5 chain: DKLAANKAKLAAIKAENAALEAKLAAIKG
The settings on record: mean of both orientations.

A further experiment concerns the target T6, APC4336-AA.
T6 chain: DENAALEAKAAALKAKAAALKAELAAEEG
The settings on record: mean of both orientations.

The target in the next experiment is T7, APC2474-AA.
T7 chain: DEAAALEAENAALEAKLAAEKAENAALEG

For another experiment, the target named is T8, APC9291-AA.
T8 chain: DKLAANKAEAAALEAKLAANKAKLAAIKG
Particulars: mean of both orientations.

The next experiment addresses T9, APC3354-AA.
T9 chain: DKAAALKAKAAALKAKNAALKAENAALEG
Particulars: mean of both orientations.

Another experiment concerns the target T10, APC542-AA.
T10 chain: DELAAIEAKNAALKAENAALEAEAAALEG
The settings on record: mean of both orientations.

The target in a further experiment is T11, APC6088-AA.
T11 chain: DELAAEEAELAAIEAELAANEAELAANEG
The settings on record: mean of both orientations.

Another experiment has as its target T12, APC5009-AA.
T12 chain: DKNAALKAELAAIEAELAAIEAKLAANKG
The settings on record: mean of both orientations.

For another experiment, the target named is T13, APC3323-AA.
T13 chain: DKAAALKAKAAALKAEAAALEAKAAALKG
The settings on record: mean of both orientations.

The target of a further experiment is T14, APC3265-AA.
T14 chain: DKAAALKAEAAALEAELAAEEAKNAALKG
Particulars: mean of both orientations.

The next experiment deals with T15, APC9806-AA.
T15 chain: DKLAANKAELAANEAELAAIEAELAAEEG
Particulars: mean of both orientations.

The next experiment addresses T16, APC2981-AA.
T16 chain: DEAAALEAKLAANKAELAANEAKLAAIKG
The settings on record: mean of both orientations.

A further experiment deals with T17, APC7524-AA.
T17 chain: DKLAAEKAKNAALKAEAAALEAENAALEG
The settings on record: mean of both orientations.

The next experiment has as its target T18, APC2724-AA.
T18 chain: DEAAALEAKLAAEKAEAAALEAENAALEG
Particulars: mean of both orientations.

The target in the next experiment is T19, APC5531-AA.
T19 chain: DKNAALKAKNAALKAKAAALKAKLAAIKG
The settings on record: mean of both orientations.

Another experiment addresses T20, APC3881-AA.
T20 chain: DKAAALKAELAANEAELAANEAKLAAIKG
Particulars: mean of both orientations.

For the next experiment, the target named is T21, APC8401-AA.
T21 chain: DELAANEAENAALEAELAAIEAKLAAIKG
The settings on record: mean of both orientations.

A further experiment concerns the target T22, APC9182-AA.
T22 chain: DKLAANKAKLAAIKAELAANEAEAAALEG
Particulars: mean of both orientations.

The target in the next experiment is T23, APC4100-AA.
T23 chain: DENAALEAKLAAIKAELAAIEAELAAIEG
Particulars: mean of both orientations.

For the molecule DEAAALEAENAALEAKLAAEKAENAALEG [APC2474-AA], the interaction score with APC2811-AA is -1.58; with APC2556-AA it was -1.49; with APC2543-AA, -1.61; in the experiment with APC8516-AA it was -1.93; with APC9141-AA it was -2.1; in the experiment with APC4336-AA it was -1.67. Besides, the interaction score with APC2474-AA is -1.69; in the experiment with APC9291-AA, -1.71; with APC3354-AA it was -1.35; with APC542-AA it was -1.4; in the experiment with APC6088-AA it was -1.54; with APC5009-AA, -1.39. In addition, the interaction score with APC3323-AA is -1.45; in the experiment with APC3265-AA it was -1.52; in the experiment with APC9806-AA, -1.64; in the experiment with APC2981-AA, -1.45; with APC7524-AA, -2.27; with APC2724-AA, -1.93. In addition, the interaction score was -1.71 with APC5531-AA; -1.83 in the experiment with APC3881-AA; -1.53 with APC8401-AA; -1.69 with APC9182-AA; -1.97 with APC4100-AA.

For the origin of these results see publication PMC10397247.
